Experimental data from publication PMC3828522.

Legend:
Pho full-length = Pho full-length (Drosophila melanogaster, UniProt Q8ST83 1-520); assay: EMSA
Sfmbt 4MBT wild type = molecular target: T1, Sfmbt 4MBT wild type (Drosophila melanogaster, UniProt Q9VK33 531-980); assay: EMSA
T1 sequence: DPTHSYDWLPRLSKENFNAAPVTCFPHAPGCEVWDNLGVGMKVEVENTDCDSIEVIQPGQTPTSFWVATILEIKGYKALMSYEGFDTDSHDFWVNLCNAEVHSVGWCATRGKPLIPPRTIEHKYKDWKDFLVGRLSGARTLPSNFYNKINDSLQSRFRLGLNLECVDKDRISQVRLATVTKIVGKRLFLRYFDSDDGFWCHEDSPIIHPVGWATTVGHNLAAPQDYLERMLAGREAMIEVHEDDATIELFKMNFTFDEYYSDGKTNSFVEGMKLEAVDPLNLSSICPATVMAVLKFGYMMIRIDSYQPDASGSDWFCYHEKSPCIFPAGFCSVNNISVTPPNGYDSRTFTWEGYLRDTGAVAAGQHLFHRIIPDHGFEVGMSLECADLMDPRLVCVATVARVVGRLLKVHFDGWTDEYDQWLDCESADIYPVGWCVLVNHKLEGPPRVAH

[1] = molecular target: Pho full-length;Sfmbt 4MBT wild type (Drosophila melanogaster;Drosophila …, UniProt Q8ST83;Q9VK33 1-520;531-980, |); assay: EMSA supershift
Sequence of Pho full-length;Sfmbt 4MBT wild type (Q8ST83 whole entry, one chain of several): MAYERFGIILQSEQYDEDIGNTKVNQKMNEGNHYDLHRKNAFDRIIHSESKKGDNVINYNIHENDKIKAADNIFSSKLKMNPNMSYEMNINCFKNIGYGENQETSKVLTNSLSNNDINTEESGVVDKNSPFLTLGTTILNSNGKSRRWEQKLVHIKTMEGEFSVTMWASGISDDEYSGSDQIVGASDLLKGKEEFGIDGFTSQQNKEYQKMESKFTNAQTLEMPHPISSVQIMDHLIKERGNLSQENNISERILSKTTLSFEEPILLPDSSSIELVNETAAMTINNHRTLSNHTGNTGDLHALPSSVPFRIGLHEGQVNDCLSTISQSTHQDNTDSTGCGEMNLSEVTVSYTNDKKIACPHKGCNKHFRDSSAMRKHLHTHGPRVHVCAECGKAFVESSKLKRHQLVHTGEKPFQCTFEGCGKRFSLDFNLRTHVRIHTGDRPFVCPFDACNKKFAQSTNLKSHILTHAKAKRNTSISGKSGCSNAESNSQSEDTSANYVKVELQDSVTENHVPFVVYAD

Sequence of Pho full-length (Q8ST83 whole entry): as the sequence (Q8ST83 whole entry, one chain of several) above

B1: Pho DNA-binding site probe (dsDNA)
DNA 1: CTCCGTCGCCATAACTGTCG
DNA 2: CGACAGTTATGGCGACGGAG
- binding result (Pho full-length): binds
- binding result (Sfmbt 4MBT wild type): no binding
- binding result [1]: binds
